Patent publication US20220074937A1 (BIOSWAN LABORATORIES, published 2022)

What was measured:
[1] = molecular target: T1, CD19 CAR containing FMC63 scFv, on the cell surface (CD19 CAR-T cells, CD19 CAR-293T cells); assay: flow cytometry (MFI) on CD19 CAR-293T cells, R19mab titrated; printed beside EC50 = 1.58 nM, which the text gives
T1 construct: Chimeric antigen receptor brought into T cells or 293T cells by lentivirus; also called FMC63 scFv CD19 CAR; CD19 CAR scFv on the cell surface; not shown: hinge, transmembrane and intracellular signalling regions of the CAR
Procedure: (§1) T cells were infected with CD19 CAR lentivirus or BCMA CAR lentivirus to obtain corresponding CAR-T cells. […] 2×10⁵ cells were suspended in 50 μL FACS buffer. 50 μL antibody solution was then added to 50 μL cell suspension and the mixture was incubated on ice for 30 minutes. The cells were then washed twice with cold FACS buffer. […] Table 1) and the mixture was incubated on ice for 30 minutes, after that the cells were washed twice with cold FACS buffer. The cells were resuspended in 200 μL FACS buffer and detected by flow cytometry.
(§2) CD19 CAR-293T cells were obtained by infecting 293T cells with CD19 CAR lentivirus. […] 2×10⁵ CD19 CAR-293T cells were suspended in 50 μL FACS buffer.

[2] = molecular target: T2, FMC63 scFv-His tag recombinant protein; assay: BLI (Fortebio Octet), FMC63 scFv loaded on the sensor, R19mab at 15.6, 7.8, 3.9, 1.95 and 0.975 nM, 1:1 model; the same value stands in rows 1 to 5 of the drawn table (column Kd (M)); the text rounds it to 43 pM
T2 construct: Expressed in 293T cells, purified on Ni-NTA; also called FMC63 scFv recombinant protein; CD19 CAR scFv recombinant protein
Excerpt: (§3) In short, the biosensor was balanced offline in PBS buffer for 600 seconds, and then detected online for 60 seconds to establish a baseline. […] Data Analysis 6.2 evaluation software was used to analyze the data, and a 1:1 combination model was used for kinetic analysis.

[3] = molecular target: T2, FMC63 scFv-His tag recombinant protein; assay: ELISA, FMC63 scFv coated
Procedure: (§4) Blocking was then performed with PBST (PBS containing 0.05% Tween 20) containing 5% BSA at 300 μL per well. […] The plate was washed with PBST and then incubated at room temperature for 30 minutes with goat anti-rabbit IgG polyclonal antibody coupled with horseradish peroxidase (HRP).

[4] = molecular target: T2, FMC63 scFv-His tag recombinant protein; assay: BLI (Fortebio Octet), FMC63 scFv on the sensor, R19mab 15.6-0.975 nM, 1:1 model
Excerpt: as §3

[5] = molecular target: T3, FMC63 antibody (murine anti-CD19 monoclonal antibody, Merck & Millipore MAB1794); assay: ELISA, FMC63 antibody coated
T3 construct: Whole mouse monoclonal antibody coated on the ELISA plate; also called CD19 antibody
Procedure: as §4

[6] = molecular target: T1, CD19 CAR containing FMC63 scFv, on the …; assay: flow cytometry on CD19 CAR-293T cells
Procedure: as §1, §2

T2 sequence (scFv, as listed by the source): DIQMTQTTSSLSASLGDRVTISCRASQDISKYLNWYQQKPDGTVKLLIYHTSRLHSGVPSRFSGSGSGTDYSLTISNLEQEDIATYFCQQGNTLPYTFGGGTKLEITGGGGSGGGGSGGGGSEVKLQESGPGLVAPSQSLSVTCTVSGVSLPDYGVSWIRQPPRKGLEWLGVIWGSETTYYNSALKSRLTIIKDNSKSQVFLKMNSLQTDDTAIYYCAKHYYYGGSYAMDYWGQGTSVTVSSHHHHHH
T1 sequence (chain, as listed by the source): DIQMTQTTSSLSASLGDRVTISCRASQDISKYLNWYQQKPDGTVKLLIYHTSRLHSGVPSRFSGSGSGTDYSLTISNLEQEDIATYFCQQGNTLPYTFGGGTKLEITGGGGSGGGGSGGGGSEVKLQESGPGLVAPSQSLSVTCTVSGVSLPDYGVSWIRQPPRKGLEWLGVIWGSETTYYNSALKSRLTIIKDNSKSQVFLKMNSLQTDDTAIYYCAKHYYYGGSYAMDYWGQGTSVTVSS

- EC50 [1]: 0.237 µg/mL
- Kd [2]: 0.0431 nM
- EC50 [3]: 0.307 nM
- Kd [4]: 0.043 nM
- EC50 [5]: 0.253 nM
- EC50 [6]: 1.58 nM
B1: rabbit monoclonal antibody R19mab against FMC63 scFv (antibody, V domains shown)
VH: QSLEESGGRLVTPGTPLTLTCTVSGIDFRNYGVSWVRQAPGKGLEWIGIFSSSGSTYYATWAKGRFTISKASSTTVDLKMTSLTTEDTATYFCARHPGPTNGWKLWGPGTLVTVSS
VL: DVVMTQTPASVEAPVGGTVTIKCQASQSVSGYCSWYQQKPGQPPKLLIYRASTLESGVPSRFSGSGSGTDFTLTISDLECADAATYYCQSNYNSGSSSSAAAFGGGTEVVVK
notes: Rabbit monoclonal IgG, expressed in 293T cells and purified on Protein A; also called No.0231 (rabbit B cell clone)
